Data from patent US7803762B1, “Ready-to-use bivalirudin compositions” (The Medicines Company, priority 2009, dated 2010).

Assay: Investigation of pH of bivalirudin solutions (degradation at pH 2-6)
Type: physicochemical
Conditions: 1 mg/ml aqueous solution
Method: The degradation pathway of bivalirudin was investigated by preparing aqueous solutions at 1 mg/ml of bivalirudin at pH 2, 3, 4, 5 and 6 (Table 1). […] The excessive degradation observed was attributed to a change in pH during storage wherein the final pH of the bivalirudin compositions was about 7.

D-Phenylalanyl-L-Prolyl-L-Arginyl-L-Prolyl-Glycyl-Glycyl-Glycyl-Glycyl-L-Asparagyl-Glycyl-L-Aspartyl-L-Phenylalanyl-L-Glutamyl-L-Glutamyl-L-Isoleucyl-L-Prolyl-L-Glutamyl-L-Glutamyl-L-Tyrosyl-L-Leucine trifluoroacetate (salt) hydrate [bivalirudin]
Asp^9-Bivalirudin (pH 2, 25° C./1 month): 2.58 % AUC
Total Degradants (pH 2, 25° C./1 month): 64.8 % AUC
Asp^9-Bivalirudin (pH 2, Initial): 0.45 % AUC
Total Degradants (pH 2, Initial): 0.6 % AUC
Asp^9-Bivalirudin (pH 3, 25° C./1 month): 2.71 % AUC
Total Degradants (pH 3, 25° C./1 month): 37.7 % AUC
Asp^9-Bivalirudin (pH 3, Initial): 0.76 % AUC
Total Degradants (pH 3, Initial): 0.9 % AUC
Asp^9-Bivalirudin (pH 4, 25° C./1 month): 1.26 % AUC
Total Degradants (pH 4, 25° C./1 month): 51.1 % AUC
Asp^9-Bivalirudin (pH 4, Initial): 0.59 % AUC
Total Degradants (pH 4, Initial): 3.1 % AUC
Asp^9-Bivalirudin / Total Degradants (pH 5, 25° C./1 month): complete degradation
Asp^9-Bivalirudin (pH 5, Initial): 0.84 % AUC
Total Degradants (pH 5, Initial): 3.4 % AUC
Asp^9-Bivalirudin / Total Degradants (pH 6, 25° C./1 month): complete degradation
Asp^9-Bivalirudin (pH 6, Initial): 1.19 % AUC
Total Degradants (pH 6, Initial): 4.7 % AUC
